Target: BG505-gp120 10MUT-KO (HIV-1, strain BG505)
Test: SPR, monomeric gp120

B1: PGT121 (antibody, V domains shown)
VH: QMQLQESGPGLVKPSETLSLTCSVSGASISDSYWSWIRRSPGKGLEWIGYVHKSGDTNYSPSLKSRVNLSLDTSKNQVSLSLVAATAADSGKYYCARTLHGRRIYGIVAFNEWFTYFYMDVWGNGTQVTVSS
VL: SDISVAPGETARISCGEKSLGSRAVQWYQHRAGQAPSLIIYNNQDRPSGIPERFSGSPDSPFGTTATLTITSVEAGDEADYYCHIWDSRVPTKWVFGGGTTLTVL
notes: also called mature PGT121
  Kd: 435 nM
